Source: article PMC7641749 (Nucleic Acids Research, 2020)
Values joined by “and” are separate entries in the source; they are usually repeats but may differ in a detail not shown here. Equal entries are not always repeated.

Target: human ERH (residues 1–104), His6-tagged (human, UniProt P84090 1-104)
Assay: ITC

Sequence of human ERH (residues 1–104), His6-tagged (P84090 whole entry, the tested form may be a part): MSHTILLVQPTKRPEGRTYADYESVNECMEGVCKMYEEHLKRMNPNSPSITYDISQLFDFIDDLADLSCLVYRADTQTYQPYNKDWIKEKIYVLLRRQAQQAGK

Binder: PRTARHAPAVRKFSPDLKLLKDVKISVSFTE [His6-SUMO tagged DGCR8^96–126]
- Kd: ~19.6 µM and ~19.7 µM
- stoichiometry N: 0.965
